2 substances from patent publication US20100095387A1, “METHODS AND REAGENTS FOR SCREENING NEW DRUGS AND FOR TREATING ION PUMP ASSOCIATED DISORDERS AND DISEASES” (priority 2005, published 2010) can be followed below.

This test addresses α3 subunit of the Na+/K+-ATPase, endogenous on mouse cells (cortical neurons, cortical slices, cardiac myocytes) (mouse) (UniProt Q6PIC6). As to the kind of experiment: cell-based or functional assay.

Substance “C-Ag95z0, soluble 95-kD COOH terminus of mouse agrin, y4 z0 (from UniProt A2ASQ1 1144-1950) (ligand)” returned an EC50 of c-fos induction (Fos in situ enzyme-linked immunoassay, cortical cultures) of 0.0119 nM.
Then “C-Ag95z8, soluble 95-kD COOH terminus of mouse agrin, y4 z8 (from UniProt A2ASQ1 1144-1950) (ligand)”, with 0.0127 nM.
